Where two headings read alike, the source gives them in different places.

A short description of data set [1]: isoelectric point (measured by isoelectric focusing). The class given is physicochemical. Conditions: insulin derivatives of the invention. On the procedure: Characteristic of these insulin derivatives is an isoelectric point between 5.8 and 8.5 (measured by isoelectric focusing). The isoelectric point--which is shifted into the neutral range by comparison with the isoelectric point of the unmodified native insulin or proinsulin (at pH = 5.4)--is determined by the additional positive charge(s) located on the surface of the molecule as a result of the basic modification. This makes these insulin derivatives with a basic modification less soluble in the physiological neutral range than is, for example, native insulin or proinsulin, which are normally in dissolved form in the neutral range.
The isoelectric point of the insulin derivatives of the formula II is between 5.5 and 9.0 (measured by isoelectric focusing).

For data set [2] the following is noted: unmodified native insulin or proinsulin, background; cited from earlier work.

For A0-Arg-de-Thr-B30-human insulin, in data set [1], the isoelectric point entry is recorded as “about 6.2”.

For the substance “native insulin: unmodified native insulin, comparison for isoelectric point and biological activity”, in data set [2], the isoelectric point is reported as 5.4 pH.

As to “proinsulin: proinsulin, comparison for isoelectric point”, the isoelectric point in data set [2] is given as 5.4 pH.

The values are drawn from US5506202A, “Insulin derivatives, a process for the preparation thereof, the use thereof, and a pharmaceutical formulation containing them” (Hoechst Aktiengesellschaft, priority 1988, dated 1996).
